# Measurements taken from the RNAGym collection of RNA variant scans (doi:10.1073/pnas.2313332121).
# B1: TPR t1 (parent)
# chain: GACCAAUCUGCCCUCAGAGCUCGAGAACAUCUUCGGAUGCAGAGGAGGCAGGCUUCGGUGGCGCGAUAGCGCCAACGUCCUCAACCUCCAAUGCAUCCCACCACAUGAUGAUGCCUGAAGAGCCUUGGUUUUUUG
# Variants of: B1
# Assay: polymerase ribozyme fitness, log enrichment relative to wild type (log ratio); higher = more active; in vitro selection for triplet polymerase activity
# Method in brief: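 In triplicate, a single round of in vitro selection was run on each mutant library, PCR-built and transcribed, covering one subunit of a heterodimeric triplet polymerase ribozyme. Frozen incubation at −7 °C followed annealing with a biotinylated primer, partner subunit and triplets, and extended constructs were then gel-excised, streptavidin-captured and taken through RT-PCR. Fitness is the logarithm of genotype enrichment over wild-type enrichment, from inverse-variance-weighted replicate averages of Illumina-sequenced inputs and outputs. […] only genotypes with ≥10 input reads and ≥1 read per output were kept.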
row,Variant,polymerase ribozyme fitness (log ratio)
1,U33A A37U U55C A100C,-6.04
2,C34U C102U,-2.22
3,C34U G44A G69A,-7.2
4,C34A G60C C97A C115G,-5.15
5,C34G U112A U130C,-6.03
6,C34A C85U A118U U130A U132C,-3.6
7,C34G C101U,-6.46
8,U33G G36A A111U,-7.33
9,C34U G45U C88A C124G,-4.4
10,U32G A43U G69U A100C U109C G117U U130A,-7.2
11,U32G C49A G117A,-7.02
12,U33C C56A,-4.11
13,C34G C72A,-6.05
14,C34G C115A,-5.21
15,U32C U78C C89A,-1.52
16,G35A C56A C123G G128C,-5.64
17,C34U A41U C72U A105C G113C,-7.42
18,C34A C56U,-2.12
19,C34A C56A,-3.11
20,C34G G48A G52C A84U G120A,-6.12
21,C34A G117C,-4.31
22,C34A G117A,-3.53
23,U33G G36C,-7.66
24,U33G G71A G117U,-8.01

row,Variant,polymerase ribozyme fitness (log ratio)
1,C34U U96A,-5.35
2,C34U U96C,-5.22
3,U33C U38A C49G A103C G113U G117A,-6.59
4,U33G C94G G113A,-5.56
5,C34U U109A U130G,-4.69
6,C34A A41U G60C C99U C104A U116C U125A,-7.43
7,U33G C49G G58C A121C,-6.04
8,C34U G69A,-5.14
9,U32G G57C C76U C82G C85U C114G,-7.16
10,C34A U112G U130A U133A,-3.74
11,U33G G63C,-5.3
12,C34G G61A G120A,-5.72
13,U33G C34A G48U G117C,-7.42
14,C34A C49G C62G A121G,-5.41
15,U33A G42A G52U G61A A121U,-5.46
16,C34A G42C A121C,-4.79
17,G35A C56A,-4.2
18,C34A G58A C89U A121G,-2.92
19,C34A A37G C53U U78G,-2.19
20,C34A U59C G127C,-4.66
21,C34A G45C C53A G60U C124A,-1.69
22,C34G C72G U96C A103U C124A,-7.14
23,U33A,-4.27
24,U33C,-3.31

row,Variant,polymerase ribozyme fitness (log ratio)
1,U33G,-5.67
2,C34A G93A,-2.95
3,C34A G93C,-3.62
4,C34G C73G U116A A121U,-5.9
5,C34G G36A,-6.25
6,C34G A50G C70G A74U A83C G110U U112G G120C,-6.67
7,C34G C123A,-6.76
8,C34G C123G,-4.46
9,C34G C123U,-5.16
10,U33C G61A U116C C124G,-5.41
11,C34G C53A,-5.71
12,C34U G61C C80U A83G,-7.08
13,U33A G52U G61C C115A,-4.91
14,G35A C56U C72U G113A U133A,-5.8
15,C34G G39C G120U,-6.09
16,C34G G61A U87A G110C,-6.72
17,C34U C40U U54C,-4.99
18,C34U G58A C97U C123G,-5.6
19,C34U A41G C53U,-4.95
20,C34U C64U C94G G113A,-7.42
21,C34U C94G,-5.95
22,U33A C72A U78C U87A,-5.41
23,C34A G69U G135U,-0.532
24,U33C C101A A121U,-4.76

row,Variant,polymerase ribozyme fitness (log ratio)
1,C34G G35C G63U A111U,-5.76
2,C34A C88U,-2.2
3,C34A G45C C53A G60U,-1.66
4,U33G C104A A121C G135A,-5.07
5,U33C G69A A83C U96C A119U C124A G127U,-5.27
6,C34U G52A G71U,-4.6
7,C34A G36C G45C U112G,-5.74
8,U33C A121C,-2.95
9,C34A U59A C70U,-5.58
10,U33G C97A,-5.28
11,U33A C114U,-4.64
12,C34U A100C,-3.69
13,C34U G61C C102U C124U,-4.34
14,U33G C64A G71U U112A,-7.32
15,C34U G58A C99U,-4.17
16,U33A A119G G120A,-3.37
17,C34A U78A,-3.26
18,U33G C73G G93U A121G,-5.53
19,G35A A100G,-6.42
20,U33A G48C,-5.1
21,C34G C53G C72A C104A,-4.72
22,C34A A41G C88U C101U,-3.38
23,C34U G61C C94U C98U G120U G127U,-5.79
24,C34A C124G U130G,-0.7

row,Variant,polymerase ribozyme fitness (log ratio)
1,C34U A43G G63A G65U C124A,-6.99
2,C34A G39U C98A,-3.78
3,C34G C86U,-6.51
4,C34U C73U,-3.35
5,C34U C73A,-4.32
6,U33A C56G G71U G93U C99U G110U G127C,-6.53
7,C34A C53U C98A,-1.98
8,C34A G47C C82U A91G G120U,-7.66
9,C34U C56G,-4.5
10,C34A G120A C124G U133A,0.189
11,C34G G63U C70U,-6.08
12,C34G C56A U106C,-6
13,C34A U59A C124A,-0.848
14,C34G A43G C53A A111C C123G,-6.97
15,C34A G63A,-4.65
16,U33A C97U,-5.53
17,C34U G47C A66C G71A G110C U129C,-6.98
18,C34G C53U G61U C73U G113C C114G,-8.49
19,C34A G63U G120A,-4.37
20,U33G C79G,-6.57
21,C34U C85U C102U,-3.64
22,C34A C114A,-4.47
23,C34A A41G A74U C88U C101U,-4.89
24,C34U G42C,-6.44

row,Variant,polymerase ribozyme fitness (log ratio)
1,C34U C86U,-5.16
2,C34A A37G,-2.73
3,C34G G61C C99A U112G U116G,-6.27
4,C34A C53A G61C,-5.6
5,U33A G44A C72A U112G,-6.21
6,U32G G48U C72G C102U G120C,-7.94
7,C34U C64U G113U,-5.9
8,U33G C72G C86A A91C,-7.55
9,C34G A50G,-6.59
10,U33C G42C C99G A105G G113C U116A C123G C124A U132C,-7.71
11,C34G C64A U116C G117U,-7.25
12,C34G A68C G113U U126A U133C,-5.64
13,C34G G44A G71A A90G C101U A121U,-6.41
14,U32G C56G,-6.87
15,U33C G63U,-3.43
16,C34G A41C A100C A103C U112A,-6.4
17,C34A C73U A74U,-3.25
18,U32C U109G,-4.99
19,C34A G71A,-3.26
20,C34A G71C,-4.06
21,U32G G35U C40U C86U A121U,-5.02
22,C34U U81A,-5.06
23,C34U U81C,-5.69
24,C34A A50U G61U,-3.7

row,Variant,polymerase ribozyme fitness (log ratio)
1,U32G G35A C98A C99U U109A,-6.04
2,U32G C70A G117A,-5.24
3,U33G G63U A90U A111G G120C,-6.96
4,U32G G57A C123U,-7.55
5,U33A G63U,-6.72
6,C34U G69U A105U G120U,-2.74
7,C34A G77C U78C,-2.16
8,U33A C62U,-5.03
9,C34A A37C A118G,-2.59
10,C34G G47C C104A C124A,-5.21
11,C34U G52U,-5.84
12,U33A A68U,-7.2
13,C34A U54G C56A,-4.3
14,C34A G120C U130G,-3.21
15,U33A G44C G57U A121G,-4.61
16,C34U U59A C94U,-5.57
17,C34U C88G C123G,-3.83
18,U33A G48C G113C,-5.71
19,C34A U59C U112G,-4.39
20,C34U G60A C124A,-3.3
21,C34A G48U G93C,-4.96
22,C34U G35U,-4.9
23,C34A A37U C82G,-4.35
